Source: patent US20210040206A1

Key:
[1] = target: SIRPa V1 recombinant protein (extracellular domain fused with mouse Fc from IgG2a) (human; mouse) (UniProt P78324); assay: ELISA on immobilised SIRPa variant-mouse Fc, donkey anti-human IgG peroxidase, TMB 450 nm; given as ED50
[2] = target: SIRPa V3 (SNP1 + 2 + 3 + 4 + 5 + 6) recombinant protein, extracellular domain fused with mouse Fc from IgG2a (human; mouse) (UniProt P78324); assay: as above
[3] = target: SIRPa V4 (SNP8) recombinant protein, extracellular domain fused with mouse Fc from IgG2a (human; mouse) (UniProt P78324); assay: as above
SIRPa V4 (SNP8) recombinant protein, extracellular domain fused with mouse Fc from IgG2a (human; mouse), sequence (P78324 31-373 G75A limits assumed): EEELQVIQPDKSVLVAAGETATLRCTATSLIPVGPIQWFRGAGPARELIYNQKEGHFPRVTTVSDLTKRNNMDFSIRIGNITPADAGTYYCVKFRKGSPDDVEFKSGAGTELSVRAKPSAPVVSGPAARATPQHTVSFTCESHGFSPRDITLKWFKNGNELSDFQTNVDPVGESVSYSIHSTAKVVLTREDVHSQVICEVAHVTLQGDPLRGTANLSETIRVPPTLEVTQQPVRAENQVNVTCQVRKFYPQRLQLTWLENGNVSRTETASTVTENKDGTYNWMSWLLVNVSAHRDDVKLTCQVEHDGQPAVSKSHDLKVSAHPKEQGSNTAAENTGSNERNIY

[4] = target: SIRPa V5 (SNP9 + 10 + 11) recombinant protein, extracellular domain fused with mouse Fc from IgG2a (human; mouse) (UniProt P78324); assay: as above
SIRPa V5 (SNP9 + 10 + 11) recombinant protein, extracellular domain fused with mouse Fc from IgG2a (human; mouse), sequence (P78324 31-373 D95E/L96S limits assumed): as the sequence (P78324 31-373 G75A limits assumed) above, with A45G, D65E, L66S counted along it

[5] = target: SIRPa V6 (SNP12 + 13) recombinant protein, extracellular domain fused with mouse Fc from IgG2a (human; mouse) (UniProt P78324); assay: as above
SIRPa V6 (SNP12 + 13) recombinant protein, extracellular domain fused with mouse Fc from IgG2a (human; mouse), sequence (P78324 31-373 N100E limits assumed): as the sequence (P78324 31-373 G75A limits assumed) above, with A45G, N70E counted along it

[6] = target: SIRPa V7 (SNP14 + ?) recombinant protein, extracellular domain fused with mouse Fc from IgG2a (human; mouse) (UniProt P78324); assay: as above
SIRPa V7 (SNP14 + ?) recombinant protein, extracellular domain fused with mouse Fc from IgG2a (human; mouse), sequence (P78324 31-373 R107S/G109S limits assumed): as the sequence (P78324 31-373 G75A limits assumed) above, with A45G, R77S, G79S counted along it

[7] = target: SIRPa V8 (SNP15 + 16) recombinant protein, extracellular domain fused with mouse Fc from IgG2a (human; mouse) (UniProt P78324); assay: as above
[8] = target: SIRPv2 (human;mouse) (UniProt P78324); assay: as above
SIRPv2 (human;mouse), sequence (P78324 31-373): as the sequence (P78324 31-373 G75A limits assumed) above, with A45G counted along it

[9] = target: SIRPa v2 (antigen of the ELISA of FIG. 9B) (human) (UniProt P78324); assay: ELISA against SIRPa v2; given as ED50
SIRPa v2 (antigen of the ELISA of FIG. 9B) (human), sequence (P78324 other isoform, or with tags, fused parts or gaps limits assumed): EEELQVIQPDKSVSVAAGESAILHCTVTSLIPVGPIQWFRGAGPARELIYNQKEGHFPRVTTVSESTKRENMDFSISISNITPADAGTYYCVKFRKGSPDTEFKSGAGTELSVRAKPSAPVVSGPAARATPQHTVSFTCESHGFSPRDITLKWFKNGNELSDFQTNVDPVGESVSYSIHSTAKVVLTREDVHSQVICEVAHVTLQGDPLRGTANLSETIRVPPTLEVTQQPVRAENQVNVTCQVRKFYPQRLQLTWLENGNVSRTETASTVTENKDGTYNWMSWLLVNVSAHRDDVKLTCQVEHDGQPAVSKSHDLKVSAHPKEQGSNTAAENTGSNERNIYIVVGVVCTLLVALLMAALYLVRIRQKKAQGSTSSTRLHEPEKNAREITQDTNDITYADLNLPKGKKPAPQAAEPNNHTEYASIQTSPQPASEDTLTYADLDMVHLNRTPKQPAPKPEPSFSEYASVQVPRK

[10] = target: human SIRPa expressed by blood monocytes of heterozygous V1/V2 donors (cells carry both SIRPa v1 and SIRPa v2); assay: flow cytometry competition, recombinant CD47-Fc on heterozygous V1/V2 monocytes (n=5)
[11] = target: human SIRPa expressed by blood monocytes of heterozygous V1/V2 donors (cells carry both SIRPa v1 and SIRPa v2); assay: FACS competition on human monocytes of V1/V2 donors; blocked ligand: biotinylated CD47Fc, revealed with streptavidin-PE

SIRPa V1 recombinant protein (extracellular domain fused with mouse Fc from IgG2a) (human; mouse), sequence (P78324 31-373 limits assumed): as the sequence (P78324 31-373 G75A limits assumed) above, with A45G counted along it
SIRPa V3 (SNP1 + 2 + 3 + 4 + 5 + 6) recombinant protein, extracellular domain fused with mouse Fc from IgG2a (human; mouse), sequence (P78324 other isoform, or with tags, fused parts or gaps limits assumed): as the sequence (P78324 31-373 G75A limits assumed) above, with L14S, T20S, T22I, R24H, A27V, A45G counted along it

B1: Kwar antibody (antibody, from a related filing, V domains shown)
VH: EVQLQQSGAELVKPGASVKLSCTASGFNIKDYYIHWVQQRTEQGLEWIGRIDPEDGETKYAPKFQDKATITADTSSNTAYLHLSSLTSEDTAVYYCARWGAYWGQGTLVTVSS
VL: QIVLTQSPAIMSASPGEKVTLTCSASSSVSSSYLYWYQQKPGSSPKLWIYSTSNLASGVPARFSGSGSGTSYSLTISSMEAEDAASYFCHQWSSYPRTFGAGTKLELK
EC50 [1]: 0.77 ng/mL
EC50 [2]: 0.77 ng/mL
EC50 [3]: 0.74 ng/mL
EC50 [4]: 0.78 ng/mL
EC50 [5]: 0.75 ng/mL
EC50 [6]: 0.6 ng/mL
EC50 [7]: 0.93 ng/mL
EC50 [8]: 0.77 ng/mL

B2: chimeric 18D5 antibody (antibody, from a related filing, V domains shown)
VH: QVQLQQPGAELVRPGSSVKLSCKASGYTFTSYWVHWVKQRPIQGLEWIGNIDPSDSDTHYNQKFKDKASLTVDKSSSTAYMQLSSLTFEDSAVYYCVRGGTGTMAWFAYWGQGTLVTVSA
VL: DVVMTQTPLSLPVSLGDQASISCRSSQSLVHSYGNTYLYWYLQKPGQSPKLLIYRVSNRFSGVPDRFSGSGSGTDFTLKISRVEAEDLGVYFCFQGTHVPYTFGSGTKLEIKR
EC50 [9]: 5720 ng/mL

B3: in-house anti-human SIRPa v1 antibody (antibody, human IgG4, V domains shown)
VH: EVQLVQSGAEVKKPGESLRISCKASGYSFTSYWVHWVRQMPGKGLEWMGNIDPSDSDTHYSPSFQGHVTLSVDKSISTAYLQLSSLKASDTAMYYCVRGGTGTLAYFAYWGQGTLVTVSS
VL: DVVMTQSPLSLPVTLGQPASISCRSSQSLVHSYGNTYLYWFQQRPGQSPRLLIYRVSNRFSGVPDRFSGSGSGTDFTLKISRVEAEDVGVYYCFQGTHVPYTFGGGTKVEIK
reduction of CD47-Fc binding [10]: 50%
IC50 (read off the curve) [11]: 100 ng/mL
